Assay: yeast display, Sf9 membrane polyspecificity reagent, FACS + sequencing; frameworks hold sequencing errors
How it was run: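 Nanobodies came from a synthetic yeast display library in Saccharomyces cerevisiae BJ5465, induced with galactose for 36–48 hours and stained for 1 hour at 4 °C with 10% biotinylated, detergent-solubilized Sf9 membrane reagent. Cells were enriched on streptavidin microbeads and then FACS-sorted, with low and high (top ~1%) gates set on anti-HA fluorescence for expression and streptavidin fluorescence for reagent binding. Each polyreactivity label reflects the gate a clone came from. Genes were amplified by colony PCR, sequenced by MiSeq 2 × 250 and filtered by CDR length.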

Sequence: QVQLVESGGGLAQAGGSLRLTCAASGSTFQIYAMGWYRPAPGKERELVAAITSSSSTNYADSVKGRFTISRDNAKNTVYLQMNRLKPEDTAVYYCAADVSWRSNWYDYWGLGTQVTVSS
- polyreactivity (PSR sort gate): low polyreactivity

Sequence: QVQLVESGGGLVQAGASLRLSRAASGLIFYRYAMGLYRPAPGKERELVAAITSGGSTYYADSVKGRFTISRDNAKNTVYLQMNSLKPEDTAVYYCAAFYVPTYYYSPYGYWGQGTQVTVSS
- polyreactivity (PSR sort gate): high polyreactivity

Sequence: QVQLVESGGGLVQAGGSLRLSCAASGITSGTYAMGWYRQAPGKERELVAAISSSGGRTYYADSVKGRFTISRDNAKNTVYLQMTSLKPEDTAVSYCAAETDTTYAFYWGQGTQVNVSS
- polyreactivity (PSR sort gate): high polyreactivity

Sequence: QVQLVESGGGLVQAGGSLRLSSAASGRTYNVYAMGWSRQAPGKERELVAGITRASTNYADSVKGRFTISRDNAKNTVYLLMNSLKPEVTAVYYCAAKIFPKGDYWGQGTQVTVSS
- polyreactivity (PSR sort gate): high polyreactivity

Sequence: QVQLVESGGGLVQAGGSLRLSCAASGIIFPVYDMGWYRQAPGKERELVASITDSGGSTSYADSVKGRFTISRDNAKNTVYLQMNSLKPEDTAVYYCAVTDSDTNYYGYLSYDYWGQGTQVTVSS
- polyreactivity (PSR sort gate): low polyreactivity

Sequence: QVQLVESCAGLVQAGGSLRLTCADSGSIFDFNAMGWYRQVPGKEREWVAAITSGGSTNYADSVKGRFTNSRDNAKNTVYLQMNSLKPEDTAVYYCAARPARGASQGGYVRPWWYDSWGQGTQVTVSS
- polyreactivity (PSR sort gate): low polyreactivity

Sequence: QVQLVESGGGLVQAGGSLRLSCAASGSTFDFYAMGWYRQAPGKERELVAAITYSGGSTYYADSVKGRFTISRDNAKNTVYLQMNSLKPEDTAVYYCAAARVWQYSDFFLYYYWGQGTQVTVSS
- polyreactivity (PSR sort gate): low polyreactivity

Sequence: QVQLVESGGGLVQAGGSLRLSCAASGLTFRHYAMGWYRQAPGKERELVAAITSSGGSTYYADSVKGRFTISRDNAKNTVYIQMNSLKPEDTAVYYCNARWSYFHAVSGVASDYWGQGTQVTVSS
- polyreactivity (PSR sort gate): high polyreactivity

Sequence: QVQLVESGGGLVQAGGSLRLSCSASGRTSVLYAMGWYRQAPGKEREFVAAITWNSGSTYYADSVKGRFTISRDHAKNTVYLQMISLKPEDTAVYYCNADYYFSSYRSTYDYWGQGTQVTVSS
- polyreactivity (PSR sort gate): low polyreactivity

Sequence: QVQLVESGGGLVQAGGSLRLSCAASGITFGVNTMGWYRQAPGKERELVAAITWRGGSTYYADSVKGRFTISRDNAKNTVYLQMNSLKPEDTAVYYCAAVDFTREISGVTYGFDYCGQGTQVTVSS
- polyreactivity (PSR sort gate): low polyreactivity

Sequence: QVQLVESGGGLVQAGGRLRLSCAASGRIFGVNAMGWYRQAPGKERELVAVISSGGSTYYADSVKGRFTISRDNAKNTVYLQMNSLKPEDTAVYYCNAVVGRWFPYNLSDYWGQGTQVTVSS
- polyreactivity (PSR sort gate): low polyreactivity

Sequence: QVQLVESGGGLVQAGGSLRLSCAASGFTIYKYAMGWYRQPPGKERELVAAITGRGGSTNYADSVKGRFTISRDTAQNTVYLQMNILKPEDTAFYYCAARTPSYEMDYWGQGTQVTVSS
- polyreactivity (PSR sort gate): high polyreactivity

Sequence: QVQLQESGVGLVQAGGSLRLSCAASGTIFRISDMGSYRQAPGKEREFVAAITYGANTYYADSGKGRFTISRDNAKNTVYLQMNSLKPEDTAVYYWAVPPVKETILDYWGQGTQVTVSS
- polyreactivity (PSR sort gate): low polyreactivity

Sequence: QVQLVESGGGLVQAGGSLRLSCADSGLIFKSYAMGWYRQARGKERELVAAISGNDGSTYYADSVKGRFTISRDNAKNTVYLQMNSLKPEDTAVYYCAADFSGPWYEYTFNYCGQGTQVTVSS
- polyreactivity (PSR sort gate): high polyreactivity

Sequence: QVQLVESGGGLVQAGGSLRLSSSASGGIFRSYAMGWYRQAPGKERELVATITDRGGSTYYADSVKGRFTISRDNAKNTVYLQMNSLKPEDTAVYYCAAELVNRLWYRVVHFDYWGQGPQVTVSS
- polyreactivity (PSR sort gate): low polyreactivity

Sequence: QVQLEESGGGLVQAGGSLRLSCAASGFIFWANAMGWYRQAPGKERELVAAIRYSGGRTYYADSVKGRFTSSRDTAKNTFFLLMNSLIPEDTAVYYCAKEYKNYGGFVVEYDYWGQGTQVNVSS
- polyreactivity (PSR sort gate): low polyreactivity

Sequence: QVQLVESGGGLVQAGGSLRLSCAASGIIFQSYTMGWYRQAPGKERELVAAIDSGGSTYYADSVKGRFTISRDNAKNTVYLQMNSLKPEDTAVYYCAAEPDTYWYTYDYWGQGTQVTVSS
- polyreactivity (PSR sort gate): low polyreactivity

Sequence: QVQLVESGGGLVQAGGSLRLSCAASGTIFDVNALGWYRQAPGKERELVAAITSGGGTNYADSVKGRFTISRDNAKNTVYLQMNSLKPEDTAVYYCAADHVYYDYDYWGQGTQVTVSS
- polyreactivity (PSR sort gate): low polyreactivity

Sequence: QVQLVESGGGLVQAGGSLRLSCAASGRTFPIYAMGWYRQAPGKERELVASITRSGGSTYYADSVKGRFTISRDNAKNTVYLQMNSLKPEDTAVYYCAAAANSYSVYTGKFYYWGQGTQVTVSS
- polyreactivity (PSR sort gate): high polyreactivity

Sequence: QVQLVESGGGLVQAGGSLRLSCAASGRIFRYYTMGWYRQAPGKERELVAAITARGTRTYYADSVKGRFTISRDNAKNTVYLQMNSLKPEETSVYYCAADRYIYFAPSMDYWGQGTQVTVSS
- polyreactivity (PSR sort gate): high polyreactivity

Sequence: QVQLVESGGALVQAGGSLRLSCAASGSTFFKYGMGWYRQAPGKERELDATISSRGGNTSYADSVKGRFTISRDNAKNTVYLQMNSLKPEDTAVYYCNAGGDEPVYGSGYDYWGQGTQVTVSS
- polyreactivity (PSR sort gate): low polyreactivity

Sequence: QVQLVESGGGLVQAGGSLRLSCAASGSISYRYDMGWYRQAPGKERELVATIRSGGSTNYADSVKGRFTISRDNAKNTVYLQMNSMIPEDTAVYYCAARLYARKILHFSADSDYWGQGTQVTVSS
- polyreactivity (PSR sort gate): low polyreactivity

Sequence: QVQLVESGGGLVQAGGSLRLSCAASGITLYRNVMGWYRQAPGKERELVADISGRGTSTYYADSVKGRFTISRDNAKNTVYLQIHSLKPEDNAVYYCKGEVYLVVYPGLYYYDIYDYWGQGTQVTVSS
- polyreactivity (PSR sort gate): low polyreactivity

Sequence: QVQLVESGGGLVHPGGSLRLSCAASGIIFGRYTMGWYRQAPGKERELVAAITSSGITYYADSVKGRFTISRDNAKNTVYLQMNSLKPEDTAVYYCNADYSIPGYYWPYDYWGQGTQVTVSS
- polyreactivity (PSR sort gate): low polyreactivity

Sequence: QVQLVESGGGLVQAGGSLRLSCAASGRIISNYAMGWYRQAPGNERELVAAITVIGGRTYYADSVKGRFTISRDNAKNTVYLQMNSLKPEDTAVYYCNAEEYWYDGFYWLSYDYWGQGTQVTVSS
- polyreactivity (PSR sort gate): high polyreactivity

Sequence: QVQLVESGGGLVQAGGSLRLSCGASGFISTYYAMGWYRQAPGKERELVAAISWNGGSTYYADSVKGRFTISRDNAKNTVYLQMNSLKPEDTAVYYCAAYLGKWRHFYSSDYDYWGQGTQVTVSS
- polyreactivity (PSR sort gate): low polyreactivity

Sequence: QVQLVESGGGLVQAGGSLRLSCAASGFIFQQNAMGWYIQAPGKERELVAAISRSGGRTYYADSVKGRFTISRDNAKNTVYLQMNSLKPEDSAVYYCATRFYTKAFEYDYWGQGTQVTVSS
- polyreactivity (PSR sort gate): high polyreactivity

Sequence: QVQLVESGGGLVQAGGSLRLSCAASGSIFNPYAMGWYRQAPGKERELVAAISSTGSTYYADSVKGRFTISRDNAKNTVYLQMNSLKPEDTAVYYCAADWYWYWFSTYDYWGQGTQVTVSS
- polyreactivity (PSR sort gate): low polyreactivity

Sequence: QVELVESGGGLVQAGGSLRLSCAASGSTFFKYDMGWYRQAPGKERELVAVITWSGGTTFYADSVKGRFTISRDNAKNTVYLQMNSLKPEDTAVYYCAADYYGYRYDYWGQGTQVTVSS
- polyreactivity (PSR sort gate): low polyreactivity

Sequence: QVQLVESGGGLVHAGGRLRLSCAASGRTFGPYVMGWYRQSPGKERELVASISSADSTYYADSVKVRFTFSRDNAKNTFYLQMNSLKPEDTAVYYCAAEWYDYLYRMDYWGQGTQVTVSS
- polyreactivity (PSR sort gate): low polyreactivity

Sequence: QVQLVESGGGLVQAGGSLRLSCAASGRIFRYNAMGWYRQAPGKEREFVAAITSSGAGTHYADSVKGRFTISRDNAKNTVYLQMNSLKPEDTAVYYCNARGYYSKNSYDYYTGDYWGQGTQVTVSS
- polyreactivity (PSR sort gate): high polyreactivity

Sequence: QVQLVESGGGLVQAGGSLRLSCAASGRTFWPYVMGWYRQAPGKERELVASITRSGGTTNYADSVKGRFTISRDNAKNTVYLQMNSLKPEDTAVYYCNARTVYSWSREYNYWGQGTQVTVSS
- polyreactivity (PSR sort gate): high polyreactivity

Sequence: QVQLVESGGGLVQAGGSLRLSCAASGSIFIGSVMGWYRQAPGKERELVADITWSGGSTYYADSVKGRFTISRANAKNTVYLQMNSLKPEDTAVYYCAARTFVIGDYDYWYALDSWGQGTQVTVSS
- polyreactivity (PSR sort gate): low polyreactivity

Sequence: QVQLVESGGGLVQAGGSLRVSCAASGYIFYGNTMGWYRQAPGKEWELVAAISYDGGSTYYADSVKGRFTISRDNAKNTVYLQMNSLKPEDTAVYYCAADTFSFRWSDYWGQGTQVTVSS
- polyreactivity (PSR sort gate): low polyreactivity

Sequence: QVQLQESGGGLVQAGGDLRLSCAASGNIFRDYIMGWYRQAPGKEREFVAGIDRGANTNYADSVKGRFTISRDNAINTVYLQMKSLKPVDTAVYYCAVHTAFVPDFIYWGQGTQVTVSS
- polyreactivity (PSR sort gate): low polyreactivity

Sequence: QVQLQESGGGMVQAGGSLRLSCAASGYISWADNMAWYRQAPGKERELVAGIGYGSTTYYADSVKGRFTISRDNAKNTAYLQMNSLKPEDTSVYYCAVGWYRDTAYKYWGQGTQVTVSS
- polyreactivity (PSR sort gate): low polyreactivity

Sequence: QVQLVESVGGLVQAGGSLRLSCPASGINFWNYAMGRYRQAPGKERELVAVISRGGSTYYADSVKGRFTISRDNAKNTVYLQMNSLKPEDNAVYYCAADSVVWEMEYWGQGTLVTVSS
- polyreactivity (PSR sort gate): high polyreactivity

Sequence: QVQLGESGGGLVQAGGSLRLSCAASGSIFEVYAMGWYRQAPGKERELVAAINYTGGSTYYADSVKGRFTISRDNAKNTVYLQMNSLKPEDTAVYYCARDTSGIGTRYDYWGQGTQVTLSS
- polyreactivity (PSR sort gate): low polyreactivity

Sequence: QVQLVESGGGLVQAGGSLRLSCAASGSNFYFYAMGWYIQAPGKERELVADITWSGGSTYYADSVKGRFTISRDNAKNTVYLQMNSLKREDTAVYYCATDSWFGLEYWGQGTQVTVSS
- polyreactivity (PSR sort gate): high polyreactivity

Sequence: QVQLVESGGGLVQAGGSLRLSCAASGRTFEGNAMGWYRQAPGKERELVAAITSGGRTNYADSVKGRFTISRDNAKNTVYLQMNSLKPEDTAVYYCAKVYRSIGPNVSRYGLSYYYWGLGTQVTVSS
- polyreactivity (PSR sort gate): low polyreactivity

Sequence: QVQLVESGGGLVQAGGSLRLSCAASGITLGYYAMGWYRQAPGKERELVAAISYRGGNTYYADSVKGRFTISRDNAKNTVYLQRNSLKPEDTAVYYCNADLGYESGWWSKYDYWGQGTQVTVSS
- polyreactivity (PSR sort gate): low polyreactivity

Sequence: QVQLVESGGGLVQAGGSLRLSCSASGIIFYFYAMGWYRQAPGKERELVAAISDDGVSTDYADSVKGRFTISRDNAKNTVYLQMNSLKPEDTAVFYCNARYSGYLRLDYWGQGTQVTVSS
- polyreactivity (PSR sort gate): low polyreactivity

Sequence: QVHLVESGGGLVQARGSLRLSCAASGSTIYSYARGWYRQAPGKERELVAAINRSAGSTYYADSVKGRFTISRDNAKNTVYLQMTSLKPEDTAVYYCAAYASRSYGDWGQGTQVTVSS
- polyreactivity (PSR sort gate): high polyreactivity
